Molecular target: the molecule itself
Assay: in vitro assembly seen by negative-stain transmission electron microscopy

B1: Rous Sarcoma Virus capsid protein (RSV CA), wild type (natural protein, Rous Sarcoma Virus (strain Prague C), UniProt P03322 240-476, looked up)
chain: PVVIKTEGPAWTPLEPKLITRLADTVRTKGLRSPITMAEVEALMSSPLLPHDVTNLMRVILGPAPYALWMDAWGVQLQTVIAAATRDPRHPANGQGRGERTNLNRLKGLADGMVGNPQGQAALLRPGELVAITASALQAFREVARLAEPAGPWADIMQGPSESFVDFANRLIKAVEGSDLPPSARAPVIIDCFRQKSQPDIQQLIRTAPSTLTTPGEIIKYVLDRQKTAPLTDQGIA
stoichiometry N: 6
